From PMC8379176 (Nature Communications, 2021)
Where a chain is given by its changes, count along the chain named. Numbers in names are those of the source.

B1: WT (protein, UniProt Q92847 1-366, looked up)
Growth hormone secretagogue …: MWNATPSEEPGFNLTLADLDWDASPGNDSLGDELLQLFPAPLLAGVTATCVALFVVGIAGNLLTMLVVSRFRELRTTTNLYLSSMAFSDLLIFLCMPLDLVRLWQYRPWNFGDLLCKLFQFVSESCTYATVLTITALSVERYFAICFPLRAKVVVTKGRVKLVIFVIWAVAFCSAGPIFVLVGVEHENGTDPWDTNECRPTEFAVRSGLLTVMVWVSSIFFFLPVFCLTVLYSLIGRKLWRRRRGDAVVGASLRDQNHKQTVKMLAVVVFAFILCWLPFHVGRYLFSKSFEPGSLEIAQISQYCNLVSFVLFYLSAAINPILYNIMSKKYRVAVFRLLGFEPFSQRKLSTLKDESSRAWTESSINT
B2: L37N-termA (protein)
chain: B1 Growth hormone secretagogue … with L37A
modifications: SNAP tag labelled with SNAP-Lumi4-Tb; left off: SNAP, N-terminal, kept
B3: F38N-termA (protein)
chain: B1 Growth hormone secretagogue … with F38A
modifications: SNAP tag labelled with SNAP-Lumi4-Tb; left off: SNAP, N-terminal, kept
B4: D992.60A (protein)
chain: B1 Growth hormone secretagogue … with D99A
modifications: SNAP tag labelled with SNAP-Lumi4-Tb; left off: SNAP, N-terminal, kept
B5: R1022.63A (protein)
chain: B1 Growth hormone secretagogue … with R102A
modifications: SNAP tag labelled with SNAP-Lumi4-Tb; left off: SNAP, N-terminal, kept
B6: L1032.64A (protein)
chain: B1 Growth hormone secretagogue … with L103A
modifications: SNAP tag labelled with SNAP-Lumi4-Tb; left off: SNAP, N-terminal, kept
B7: E1243.33A (protein)
chain: B1 Growth hormone secretagogue … with E124A
modifications: SNAP tag labelled with SNAP-Lumi4-Tb; left off: SNAP, N-terminal, kept
B8: I1784.60A (protein)
chain: B1 Growth hormone secretagogue … with I178A
modifications: SNAP tag labelled with SNAP-Lumi4-Tb; left off: SNAP, N-terminal, kept
B9: L1814.63A (protein)
chain: B1 Growth hormone secretagogue … with L181A
modifications: SNAP tag labelled with SNAP-Lumi4-Tb; left off: SNAP, N-terminal, kept
B10: E197ECL2A (protein)
chain: B1 Growth hormone secretagogue … with E197A
modifications: SNAP tag labelled with SNAP-Lumi4-Tb; left off: SNAP, N-terminal, kept
B11: F2796.51A (protein)
chain: B1 Growth hormone secretagogue … with F279A
modifications: SNAP tag labelled with SNAP-Lumi4-Tb; left off: SNAP, N-terminal, kept
B12: R2836.55A (protein)
chain: B1 Growth hormone secretagogue … with R283A
modifications: SNAP tag labelled with SNAP-Lumi4-Tb; left off: SNAP, N-terminal, kept
B13: F2866.58A (protein)
chain: B1 Growth hormone secretagogue … with F286A
modifications: SNAP tag labelled with SNAP-Lumi4-Tb; left off: SNAP, N-terminal, kept
B14: Q3027.32A (protein)
chain: B1 Growth hormone secretagogue … with Q302A
modifications: SNAP tag labelled with SNAP-Lumi4-Tb; left off: SNAP, N-terminal, kept
B15: N3057.35A (protein)
chain: B1 Growth hormone secretagogue … with N305A
modifications: left off: SNAP, N-terminal, kept
B16: F3097.39A (protein)
chain: B1 Growth hormone secretagogue … with F309A
modifications: SNAP tag labelled with SNAP-Lumi4-Tb; left off: SNAP, N-terminal, kept
B17: F3127.42A (protein)
chain: B1 Growth hormone secretagogue … with F312A
modifications: SNAP tag labelled with SNAP-Lumi4-Tb; left off: SNAP, N-terminal, kept
B18: A204ECL2E (protein, UniProt Q92847 1-366, looked up, variant A204E)
Growth hormone secretagogue …: B1 Growth hormone secretagogue … with A204E

molecular target: HA-tagged ghrelin receptor F286D (human) (UniProt Q92847); test: not given; conditions: not given

Q: Which fold decrease in calcium response of HEK293 cells, activity of ghrelin against the WT receptor does the source give for “ghrelin (octanoylated at Ser3) (peptide)” here?
A: > 250 fold

system: ghrelin receptor (WT or mutants); test: Cell-surface expression assay (FACS); assay type: cell-based, human; conditions: replicate 1
Experimental: Cell-surface expression for each mutant was monitored by a fluorescence-activated cell sorting (FACS) assay. In brief, the expressed cells were incubated with mouse anti-HA-FITC antibody (Sigma) at a dilution of 1:200 for 20 min at 4 °C, and then a 9-fold excess of PBS was added to cells. […] The FACS data were analyzed by BD Accuri C6 software 1.0.264.21. The gating strategy and calculation method of expression are shown in Supplementary Fig. 11.
Supplementary Figure 11 | Gating strategy of cell surface expression assay. Circle a gate P1 in the scatter map (black circle). The cells shown in the histogram map are all the cells in the gate P1 in the scatter map. Fluorescence signal intensity (FITC) is presented by […]. With the Blank sample as the reference value of background fluorescence signal (a), the fluorescence signal histogram map is divided into two regions. The left region represents the negative cell community (FITC-), while the right region represents the positive cell community (FITC+). The expression level of cell surface wild-type (WT) ghrelin receptor (b) can be calculated as follows:
(M(FITC+)-M(FITC-))×(FITC+% Parent). M, mean fluorescence intensity. The expression level of the ghrelin receptor mutant is calculated similarly to WT receptor and then is normalized with the WT to calculate the relative expression value. […]

Q: With B1 as the molecule, how does the Cell-surface expression read?
A: 98.69%

Q: With B2 as the molecule, how does the Cell-surface expression read?
A: 100.75%

Q: For B3, which Cell-surface expression is on record?
A: 92.98%

Q: For B4, which Cell-surface expression is on record?
A: 101.25%

Q: For B5, which Cell-surface expression is on record?
A: 101.47%

Q: Which Cell-surface expression does the source give for B6 here?
A: 102.32%

Q: With B7 as the molecule, how does the Cell-surface expression read?
A: 93.73%

Q: Which Cell-surface expression does the source give for B8 here?
A: 94.94%

Q: With B9 as the molecule, how does the Cell-surface expression read?
A: 94.17%

Q: Which Cell-surface expression does the source give for B10 here?
A: 101.89%

Q: Which Cell-surface expression does the source give for B11 here?
A: 103.70%

Q: With B12 as the molecule, how does the Cell-surface expression read?
A: 56.22%

Q: Which Cell-surface expression does the source give for B13 here?
A: 90.14%

Q: Which Cell-surface expression does the source give for B14 here?
A: 99.52%

Q: With B15 as the molecule, how does the Cell-surface expression read?
A: 83.54%

Q: With B16 as the molecule, how does the Cell-surface expression read?
A: 77.16%

Q: For B17, which Cell-surface expression is on record?
A: 89.96%

Q: With B18 as the molecule, how does the Cell-surface expression read?
A: 81.34%

same assay, conditions: replicate 2

Q: With B1 as the molecule, how does the Cell-surface expression read?
A: 96.95%

Q: Which Cell-surface expression does the source give for B2 here?
A: 98.96%

Q: Which Cell-surface expression does the source give for B3 here?
A: 95.22%

Q: For B4, which Cell-surface expression is on record?
A: 96.41%

Q: Which Cell-surface expression does the source give for B5 here?
A: 87.96%

Q: Which Cell-surface expression does the source give for B6 here?
A: 103.70%

Q: With B7 as the molecule, how does the Cell-surface expression read?
A: 94.80%

Q: With B8 as the molecule, how does the Cell-surface expression read?
A: 100.59%

Q: Which Cell-surface expression does the source give for B9 here?
A: 98.71%

Q: Which Cell-surface expression does the source give for B10 here?
A: 100.72%

Q: For B11, which Cell-surface expression is on record?
A: 100.07%

Q: With B12 as the molecule, how does the Cell-surface expression read?
A: 65.89%

Q: For B13, which Cell-surface expression is on record?
A: 93.12%

Q: With B14 as the molecule, how does the Cell-surface expression read?
A: 91.82%

Q: With B15 as the molecule, how does the Cell-surface expression read?
A: 81.81%

Q: Which Cell-surface expression does the source give for B16 here?
A: 85.09%

Q: With B17 as the molecule, how does the Cell-surface expression read?
A: 82.57%

Q: For B18, which Cell-surface expression is on record?
A: 81.24%

same assay, conditions: replicate 3

Q: For B1, which Cell-surface expression is on record?
A: 107.34%

Q: For B2, which Cell-surface expression is on record?
A: 98.94%

Q: For B3, which Cell-surface expression is on record?
A: 93.15%

Q: With B4 as the molecule, how does the Cell-surface expression read?
A: 90.24%

Q: With B5 as the molecule, how does the Cell-surface expression read?
A: 94.26%

Q: With B6 as the molecule, how does the Cell-surface expression read?
A: 96.41%

Q: For B7, which Cell-surface expression is on record?
A: 89.39%

Q: With B8 as the molecule, how does the Cell-surface expression read?
A: 91.58%

Q: With B9 as the molecule, how does the Cell-surface expression read?
A: 96.25%

Q: With B10 as the molecule, how does the Cell-surface expression read?
A: 102.63%

Q: With B11 as the molecule, how does the Cell-surface expression read?
A: 101.03%

Q: With B12 as the molecule, how does the Cell-surface expression read?
A: 64.91%

Q: With B13 as the molecule, how does the Cell-surface expression read?
A: 89.15%

Q: With B14 as the molecule, how does the Cell-surface expression read?
A: 87.39%

Q: For B15, which Cell-surface expression is on record?
A: 86.10%

Q: For B16, which Cell-surface expression is on record?
A: 81.26%

Q: With B17 as the molecule, how does the Cell-surface expression read?
A: 78.32%

Q: For B18, which Cell-surface expression is on record?
A: 78.97%

same assay, conditions: replicate 4

Q: Which Cell-surface expression does the source give for B1 here?
A: 98.90%

Q: With B2 as the molecule, how does the Cell-surface expression read?
A: 96.06%

Q: Which Cell-surface expression does the source give for B3 here?
A: 94.06%

Q: Which Cell-surface expression does the source give for B4 here?
A: 92.75%

Q: Which Cell-surface expression does the source give for B5 here?
A: 99.21%

Q: With B6 as the molecule, how does the Cell-surface expression read?
A: 91.52%

Q: For B7, which Cell-surface expression is on record?
A: 97.54%

Q: With B8 as the molecule, how does the Cell-surface expression read?
A: 96.01%

Q: For B9, which Cell-surface expression is on record?
A: 95.38%

Q: For B10, which Cell-surface expression is on record?
A: 110.56%

Q: For B11, which Cell-surface expression is on record?
A: 106.36%

Q: With B12 as the molecule, how does the Cell-surface expression read?
A: 66.07%

Q: For B13, which Cell-surface expression is on record?
A: 93.89%

Q: For B14, which Cell-surface expression is on record?
A: 99.41%

Q: Which Cell-surface expression does the source give for B15 here?
A: 86.24%

Q: With B16 as the molecule, how does the Cell-surface expression read?
A: 79.68%

Q: Which Cell-surface expression does the source give for B17 here?
A: 82.11%

Q: Which Cell-surface expression does the source give for B18 here?
A: 76.38%

same assay, conditions: replicate 5

Q: With B1 as the molecule, how does the Cell-surface expression read?
A: 98.13%

Q: For B2, which Cell-surface expression is on record?
A: 97.45%

Q: Which Cell-surface expression does the source give for B3 here?
A: 92.77%

Q: For B4, which Cell-surface expression is on record?
A: 94.78%

Q: With B5 as the molecule, how does the Cell-surface expression read?
A: 100.61%

Q: For B6, which Cell-surface expression is on record?
A: 101.60%

Q: With B7 as the molecule, how does the Cell-surface expression read?
A: 93.21%

Q: Which Cell-surface expression does the source give for B8 here?
A: 89.87%

Q: With B9 as the molecule, how does the Cell-surface expression read?
A: 113.13%

Q: With B10 as the molecule, how does the Cell-surface expression read?
A: 103.22%

Q: For B11, which Cell-surface expression is on record?
A: 95.20%

Q: Which Cell-surface expression does the source give for B12 here?
A: 63.09%

Q: With B13 as the molecule, how does the Cell-surface expression read?
A: 90.00%

Q: With B14 as the molecule, how does the Cell-surface expression read?
A: 85.20%

Q: With B15 as the molecule, how does the Cell-surface expression read?
A: 88.82%

Q: With B16 as the molecule, how does the Cell-surface expression read?
A: 76.65%

Q: With B17 as the molecule, how does the Cell-surface expression read?
A: 77.05%

Q: For B18, which Cell-surface expression is on record?
A: 75.96%

system: not given; test: not given; conditions: cited from earlier work
Description: Food intake is one of the most fundamental processes required for sustaining human life.

Q: For ghrelin, which “growth hormone-releasing activity” value is on record?
A: potent growth hormone-releasing activity
